From FireProtDB (doi:10.1110/ps.8.7.1530)

B1: PTS system mannose-specific EIIAB component, P69797 (parent)
chain: MTIAIVIGTHGWAAEQLLKTAEMLLGEQENVGWIDFVPGENAETLIEKYNAQLAKLDTTKGVLFLVDTWGGSPFNAASRIVVDKEHYEVIAGVNIPMLVETLMARDDDPSFDELVALAVETGREGVKALKAKPVEKAAPAPAAAAPKAAPTPAKPMGPNDYMVIGLARIDDRLIHGQVATRWTKETNVSRIIVVSDEVAADTVRKTLLTQVAPPGVTAHVVDVAKMIRVYNNPKYAGERVMLLFTNPTDVERLVEGGVKITSVNVGGMAFRQGKTQVNNAVSVDEKDIEAFKKLNARGIELEVRKVSTDPKLKMMDLISKIDK

Variants of: B1
Conditions: Escherichia coli (strain K12); pH 7.4; 22 °C; GdnHCl; Fluorescence; Sodium phosphate 20 mM; reversible: yes; structure 1PDO; whole UniProt chain shown

| Variant | denaturant midpoint (higher = more stable) | unfolding free energy |
| --- | --- | --- |
| MTIAIVIGTHGWAAEQLLKTAEMLLGEQENVGFIDFVPGENAETLIEKYNAQLAKLDTTKGVLFLVDTFGGSPFNAASRIVVDKEHYEVIAGVNIPMLVETLMARDDDPSFDELVALAVETGREGVKALKAKPVEKAAPAPAAAAPKAAPTPAKPMGPNDYMVIGLARIDDRLIHGQVATRWTKETNVSRIIVVSDEVAADTVRKTLLTQVAPPGVTAHVVDVAKMIRVYNNPKYAGERVMLLFTNPTDVERLVEGGVKITSVNVGGMAFRQGKTQVNNAVSVDEKDIEAFKKLNARGIELEVRKVSTDPKLKMMDLISKIDK [W33F W69F] | 1.8 M | 5.26 kcal/mol |
| MTIAIVIGTHGFAAEQLLKTAEMLLGEQENVGFIDFVPGENAETLIEKYNAQLAKLDTTKGVLFLVDTWGGSPFNAASRIVVDKEHYEVIAGVNIPMLVETLMARDDDPSFDELVALAVETGREGVKALKAKPVEKAAPAPAAAAPKAAPTPAKPMGPNDYMVIGLARIDDRLIHGQVATRWTKETNVSRIIVVSDEVAADTVRKTLLTQVAPPGVTAHVVDVAKMIRVYNNPKYAGERVMLLFTNPTDVERLVEGGVKITSVNVGGMAFRQGKTQVNNAVSVDEKDIEAFKKLNARGIELEVRKVSTDPKLKMMDLISKIDK [W12F W33F] | 2.2 M | 10.8 kcal/mol |
| MTIAIVIGTHGWAAEQLLKTAEMLLGEQENVGWIDFVPGENAETLIEKYNAQLAKLDTTKGVLFLVDTFGGSPFNAASRIVVDKEHYEVIAGVNIPMLVETLMARDDDPSFDELVALAVETGREGVKALKAKPVEKAAPAPAAAAPKAAPTPAKPMGPNDYMVIGLARIDDRLIHGQVATRWTKETNVSRIIVVSDEVAADTVRKTLLTQVAPPGVTAHVVDVAKMIRVYNNPKYAGERVMLLFTNPTDVERLVEGGVKITSVNVGGMAFRQGKTQVNNAVSVDEKDIEAFKKLNARGIELEVRKVSTDPKLKMMDLISKIDK [W69F] | 2.1 M | 6.22 kcal/mol |
| MTIAIVIGTHGWAAEQLLKTAEMLLGEQENVGFIDFVPGENAETLIEKYNAQLAKLDTTKGVLFLVDTWGGSPFNAASRIVVDKEHYEVIAGVNIPMLVETLMARDDDPSFDELVALAVETGREGVKALKAKPVEKAAPAPAAAAPKAAPTPAKPMGPNDYMVIGLARIDDRLIHGQVATRWTKETNVSRIIVVSDEVAADTVRKTLLTQVAPPGVTAHVVDVAKMIRVYNNPKYAGERVMLLFTNPTDVERLVEGGVKITSVNVGGMAFRQGKTQVNNAVSVDEKDIEAFKKLNARGIELEVRKVSTDPKLKMMDLISKIDK [W33F] | 2.2 M | 8.37 kcal/mol |
| MTIAIVIGTHGFAAEQLLKTAEMLLGEQENVGWIDFVPGENAETLIEKYNAQLAKLDTTKGVLFLVDTWGGSPFNAASRIVVDKEHYEVIAGVNIPMLVETLMARDDDPSFDELVALAVETGREGVKALKAKPVEKAAPAPAAAAPKAAPTPAKPMGPNDYMVIGLARIDDRLIHGQVATRWTKETNVSRIIVVSDEVAADTVRKTLLTQVAPPGVTAHVVDVAKMIRVYNNPKYAGERVMLLFTNPTDVERLVEGGVKITSVNVGGMAFRQGKTQVNNAVSVDEKDIEAFKKLNARGIELEVRKVSTDPKLKMMDLISKIDK [W12F] | 2.6 M | 14.1 kcal/mol |
| MTIAIVIGTHGFAAEQLLKTAEMLLGEQENVGWIDFVPGENAETLIEKYNAQLAKLDTTKGVLFLVDTFGGSPFNAASRIVVDKEHYEVIAGVNIPMLVETLMARDDDPSFDELVALAVETGREGVKALKAKPVEKAAPAPAAAAPKAAPTPAKPMGPNDYMVIGLARIDDRLIHGQVATRWTKETNVSRIIVVSDEVAADTVRKTLLTQVAPPGVTAHVVDVAKMIRVYNNPKYAGERVMLLFTNPTDVERLVEGGVKITSVNVGGMAFRQGKTQVNNAVSVDEKDIEAFKKLNARGIELEVRKVSTDPKLKMMDLISKIDK [W12F W69F] | 2.1 M | 11 kcal/mol |
